# Test results taken from patent publication US10100120B2, “Antibody which specifically binds to human CRTH2” (KYOWA HAKKO KIRIN CO., LTD, priority 2015, dated 2018).
# Changes are numbered by the printed parent chain.
# T1: mutated human CRTH2 with amino acid substitution (Homo sapiens, UniProt Q9Y5Y4, D177A/G178A/R179A)
# T1 construct: inserting genes encoding various mutants with amino acid substitution obtained by deleting termination codons; expressed in transfected cells; host or cells: CHO-S cells (Lifetechnologies), transient (phmAG1-MNLinker vector)
# T1 sequence (Q9Y5Y4 1-395 D177A/G178A/R179A): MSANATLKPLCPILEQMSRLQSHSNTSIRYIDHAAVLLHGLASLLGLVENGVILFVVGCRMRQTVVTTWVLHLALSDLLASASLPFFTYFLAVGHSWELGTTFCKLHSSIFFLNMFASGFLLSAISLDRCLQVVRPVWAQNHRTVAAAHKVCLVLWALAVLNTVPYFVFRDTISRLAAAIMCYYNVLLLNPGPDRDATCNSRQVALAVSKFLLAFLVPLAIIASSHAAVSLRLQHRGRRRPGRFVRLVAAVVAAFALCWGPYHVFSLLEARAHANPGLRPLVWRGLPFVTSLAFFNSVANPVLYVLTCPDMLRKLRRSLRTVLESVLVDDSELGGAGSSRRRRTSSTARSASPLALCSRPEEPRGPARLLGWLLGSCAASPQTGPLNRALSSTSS
# T2: mutated human CRTH2 with amino acid substitution (Homo sapiens, UniProt Q9Y5Y4, E15A/L14A/P12A)
# T2 construct: inserting genes encoding various mutants with amino acid substitution obtained by deleting termination codons; expressed in transfected cells; host or cells: CHO-S cells (Lifetechnologies), transient (phmAG1-MNLinker vector)
# T2 sequence (Q9Y5Y4 1-395 P12A/L14A/E15A): T1 sequence (Q9Y5Y4 1-395 D177A/G178A/R179A) with P12A, L14A, E15A, A177D, A178G, A179R
# B1: LV0HV1: humanized Lym2 antibody, VL LV0 (SEQ ID NO: 33), VH HV1 (SEQ ID NO: 51) (antibody, V domains shown)
# VH: EVQLVESGGGVVQPGRSLRLSCAASGFTFSNYYMAWVRQAPGKGLEWVATISYDGSSTYYRDSVKGRFTISRDNAKNSLYLQMNSLRAEDTATYYCARHRGYYYSGAGYFDYWGQGTMVTVSS
# VL: DIVMTQTPLSLPVTPGESASISCRSSQSLEYSDGYTYLEWYLQKPGQSPQVLIYGVSNRFSGVPDRFSGSGSGTDFTLKISRVEAEDVGVYYCFQATHDPLTFGQGTKLEIK
# Tests used:
# [1] = biological target: T1, mutated human CRTH2 with amino acid substitution; assay: Epitope analysis using CHO-S cells which express mutated human CRTH2 with amino acid substitution; type: binding; details: mutant D177A, G178A, and R179A; antibody 10 μg/mL; relative to wild-type = 100%
# Protocol: (§1) A mutant with amino acid substitution expression vector obtained by partially substituting amino acid residues in an extracellular region with other amino acid residues among the amino acid sequences of human CRTH2 was prepared. Specifically, mutant with amino acid substitution expression vectors obtained by substitution of S2A; N4A; T6A and L7A; K8A, P9A, and L10A; P12A, L14A, and EISA; Q16E, R19H, and Q21R; H23A, S24A, and N25A; T26A, S27A, and I28A; D171A, T172A, and I173A; S174A, R175A, and L176A; D177A, G178A, and R179A; 1180A and M181A; Y183A, Y184A, and N185A; L187A, L188A, and L189A; N190A; P191A; G192A; P193A; D194A; R195A; D196A, and T198A; N275A, G277A, and L278A; P276A; P279A and L281A; P280A; or V282A, R283A, and R284A in the amino acid sequences represented by SEQ ID NO: 2 were respectively prepared. It should be noted that the above symbols in the amino acid substitution indicate [single letter code of an amino acid residue before substitution] [substitution position counting from the N terminal] [single letter code of the amino acid reside after substitution].
# (§2) Azami-Green tag was added to the intercellular C terminal region by inserting genes encoding various mutants with amino acid substitution obtained by deleting termination codons to the restriction enzyme sites of BamHI and HindIII using phmAG1-MNLinker (MBL) as expression vectors.
# (§3) The above-described vectors expressing mutants with amino acid substitution were prepared using 1) a method of entirely synthesizing gene sequences encoding mutants with amino acid substitution and inserting the gene sequences into a vector or 2) a method of performing site-specific mutation from a vector into which DNA which encodes the amino acid sequences of wild-type human CRTH2 represented by SEQ ID NO: 1 was inserted.
# (§4) CHO-S cells (Lifetechnologies) were used for preparing mutated human CRTH2 with amino acid substitution expressing cell lines. Free style CHO expression medium (Invitrogen) containing 8 mM L-Glutamine (Invitrogen) was used for subculturing cells and the cells were cultured by shaking under the conditions of 37° C. in the presence of 5% CO2.
# (§5) 25 μg of the mutated human CRTH2 with amino acid substitution expression vector prepared in (1) described above was dissolved in 400 μL of Opti-Pro SFM (Invitrogen) and 25 μL of a Freestyle MAX Reagent (Invitrogen) was dissolved in 400 μL of Opti-Pro SFM and each of them were allowed to stand at room temperature for 5 minutes. The two liquids were mixed with each other and allowed to stand at room temperature for 15 minutes. The mixed solution was added to the CHO-S culture solution and the cells were cultured for 24 hours, thereby obtaining cell lines which express mutated human CRTH2 with amino acid substitution.
# (§6) The CHO-S cells which express mutated human CRTH2 with amino acid substitution established in (2) were washed with SM, seeded in a 96-well plate such that one well has 2×10^5 cells, and centrifuged at 1700 rpm for 2 minutes. After the supernatant was removed, chLym2, LV0HV1, the anti-human CRTH2 antibody hu19A2 v52, hu8B1 v1, ch3C12, or ch31A5 prepared in Example 9, or a commercially available anti-human CRTH2 antibody BM16 (Santa Cruz) prepared to have a concentration of 10 μg/mL using SM was added thereto to cause a reaction at 4° C. for 1 hour.
# (§7) After the cells were washed, goat anti-Human IgG Alexa 647 (Molecular Probes) diluted with SM was added to wells to which chLym2, LV0HV1, hu19A2 v52, hu8B1 v1, ch3C12, or ch31A5 was added and goat anti-Rat IgG Alexa 647 (Molecular Probes) diluted with SM was added to wells to which BM16 was added at a final concentration of 10 μg/mL to cause a reaction at 4° C. for 1 hour.
# (§8) After the reaction, the cells were washed and suspended with SM, and the fluorescent intensity was analyzed by flow cytometry (BD Biosciences, FACS CantoII). […]
# [2] = biological target: T2, mutated human CRTH2 with amino acid substitution; assay: as above; type: binding; details: mutant P12A, L14A, and E15A; antibody 10 μg/mL; relative to wild-type = 100%
# Protocol: as §1, §2, §3, §4, §5, §6, §7, §8
molecule,measurement,setting,value
B1,reactivity against cells expressing mutated human CRTH2,[1],lost
same,reactivity against cells expressing mutated human CRTH2,[2],lost
